Consider three substances from article PMC6030200.

Assay [1] has as its target recombinant human integrin α6β1 (human) (UniProt P23229). Nature of the assay: SPR; Biacore T200; integrin α6β4 or α6β1 immobilised by EDC/NHS coupling on CM5 chips (about 16000 RU); seven 2-fold dilutions of PB injected 120 s at 30 µl/minute, 120 s dissociation; 10 mM HEPES, 150 mM NaCl, 1 mM CaCl2, 1 mM MgCl2, 0.05% P20, pH 7.4; 25 °C.
Assay [2] deals with recombinant human integrin α6β4 (human) (UniProt P23229). The description is as above.
recombinant human integrin α6β4 (human), sequence (P23229 24-1130, chain 1 of 2): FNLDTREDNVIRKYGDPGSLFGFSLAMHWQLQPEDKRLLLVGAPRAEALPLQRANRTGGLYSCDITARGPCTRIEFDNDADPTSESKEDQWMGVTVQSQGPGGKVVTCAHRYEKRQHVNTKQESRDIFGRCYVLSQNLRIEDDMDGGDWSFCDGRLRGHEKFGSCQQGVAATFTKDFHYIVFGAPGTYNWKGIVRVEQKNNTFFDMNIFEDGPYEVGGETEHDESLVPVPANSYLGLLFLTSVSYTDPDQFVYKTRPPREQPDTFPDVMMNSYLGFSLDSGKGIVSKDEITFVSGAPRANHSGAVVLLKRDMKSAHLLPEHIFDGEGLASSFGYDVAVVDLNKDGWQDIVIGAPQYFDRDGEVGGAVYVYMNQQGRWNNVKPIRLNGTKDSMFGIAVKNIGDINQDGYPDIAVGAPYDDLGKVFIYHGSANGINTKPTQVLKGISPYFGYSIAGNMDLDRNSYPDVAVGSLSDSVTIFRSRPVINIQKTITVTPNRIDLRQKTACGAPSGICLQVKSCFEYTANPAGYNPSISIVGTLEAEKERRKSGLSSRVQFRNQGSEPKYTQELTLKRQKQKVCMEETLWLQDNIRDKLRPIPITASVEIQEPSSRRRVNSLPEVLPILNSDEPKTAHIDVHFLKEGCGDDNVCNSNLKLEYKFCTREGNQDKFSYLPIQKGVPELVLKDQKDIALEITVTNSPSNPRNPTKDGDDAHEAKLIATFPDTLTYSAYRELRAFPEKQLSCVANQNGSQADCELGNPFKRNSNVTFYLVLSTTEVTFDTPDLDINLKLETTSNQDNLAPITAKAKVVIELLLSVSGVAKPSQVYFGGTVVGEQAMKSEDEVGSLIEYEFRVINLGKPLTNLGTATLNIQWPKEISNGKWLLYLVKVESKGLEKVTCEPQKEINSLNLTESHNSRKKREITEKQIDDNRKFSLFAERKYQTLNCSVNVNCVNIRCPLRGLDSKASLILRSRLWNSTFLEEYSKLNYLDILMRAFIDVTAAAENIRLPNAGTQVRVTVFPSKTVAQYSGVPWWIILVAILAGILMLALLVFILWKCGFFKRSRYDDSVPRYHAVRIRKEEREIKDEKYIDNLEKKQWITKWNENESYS
recombinant human integrin α6β4 (human), sequence (P16144 28-710, chain 2 of 2, further chain): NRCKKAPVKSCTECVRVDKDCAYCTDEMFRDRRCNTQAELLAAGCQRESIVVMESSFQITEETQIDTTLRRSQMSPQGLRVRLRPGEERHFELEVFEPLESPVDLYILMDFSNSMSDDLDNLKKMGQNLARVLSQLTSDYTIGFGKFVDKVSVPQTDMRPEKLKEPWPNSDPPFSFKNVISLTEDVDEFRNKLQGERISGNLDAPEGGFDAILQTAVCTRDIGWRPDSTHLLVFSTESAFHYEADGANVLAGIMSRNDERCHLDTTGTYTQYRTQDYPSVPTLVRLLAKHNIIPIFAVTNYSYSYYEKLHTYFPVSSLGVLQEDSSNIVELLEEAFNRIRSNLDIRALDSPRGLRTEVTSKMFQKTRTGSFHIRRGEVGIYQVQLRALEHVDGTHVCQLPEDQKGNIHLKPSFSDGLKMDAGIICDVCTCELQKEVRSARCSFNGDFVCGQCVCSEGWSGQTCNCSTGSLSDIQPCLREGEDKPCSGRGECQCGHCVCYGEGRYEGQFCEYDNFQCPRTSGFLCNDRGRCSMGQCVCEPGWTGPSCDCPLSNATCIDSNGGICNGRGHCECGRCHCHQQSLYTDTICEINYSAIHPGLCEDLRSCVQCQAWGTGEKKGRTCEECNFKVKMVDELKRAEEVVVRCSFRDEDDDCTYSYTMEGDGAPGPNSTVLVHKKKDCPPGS
Assay [3] deals with HAdV-41 penton base protein, recombinant, soluble (human adenovirus type 41 (HAdV-41)). Nature of the assay: gas-phase electrophoretic mobility macromolecular analysis (GEMMA).
The target is the same in assay [4]. Put plainly: negative-stain electron microscopy.

With “HAdV-5 penton base protein, recombinant, soluble (from UniProt P12538 1-571) (natural protein)”, the fold lower affinity than 40PB and 41PB in assay [1] and in assay [2] was 3 fold throughout.
As to “HAdV-40 penton base protein, recombinant, soluble (natural protein)”, in assay [1], the fold lower affinity than to α6β4 was found to be 10 fold and the koff came to 0.1 s⁻¹.
Consider “HAdV-41 penton base protein, recombinant, soluble (natural protein)”, for which the stoichiometry N in assay [3] came out at 5. Also, the stoichiometry N in assay [4] worked out at 5. For the same substance, in assay [1], the fold lower affinity than to α6β4 turned out to be 10 fold and the kon was 10000 M⁻¹ s⁻¹.

Broadly, the koff is the rate constant with which the complex falls apart. By stoichiometry N is commonly meant a count of units in the complex or per binding partner. One may read the kon as the rate constant with which the complex forms.
